PMC5669812 (Protein expression and purification, 2017)
Where two headings read alike, the source gives them in different places.

What was measured:
[1] = biological target: the molecule itself; experiment: native gel or EMSA
[2] = biological target: T1, MTSL-labeled GroEL^A138C (E. coli, UniProt P0A6F5 2-548, C458A | C519A, MTSL nitroxide spin label on cysteine 138); experiment: negative-stain electron microscopy
[3] = biological target: T1, MTSL-labeled GroEL^A138C; experiment: negative-stain electron microscopy; remark: listed apart in the source

Row | Binder | binding result [1] | stoichiometry N [2] | stoichiometry N [3]
1 | MTS-labeled GroEL^R268C (natural protein, E. coli, diamagnetic MTS label on cysteine 268) AAKDVKFGNDARVKMLRGVNVLADAVKVTLGPKGRNVVLDKSFGAPTITKDGVSVAREIELEDKFENMGAQMVKEVASKANDAAGDGTTTATVLAQAIITEGLKAVAAGMNPMDLKRGIDKAVTAAVEELKALSVPASDSKAIAQVGTISANSDETVGKLIAEAMDKVGKEGVITVEDGTGLQDELDVVEGMQFDRGYLSPYFINKPETGAVELESPFILLADKKISNIREMLPVLEAVAKAGKPLLIIAEDVEGEALATLVVNTMCGIVKVAAVKAPGFGDRRKAMLQDIATLTGGTVISEEIGMELEKATLEDLGQAKRVVINKDTTTIIDGVGEEAAIQGRVAQIRQQIEEATSDYDREKLQERVAKLAGGVAVIKVGAATEVEMKEKKARVEDALHATRAAVEEGVVAGGGVALIRVASKLADLRGQNEDQNVGIKVALRAMEAPLRQIVLNAGEEPSVVANTVKGGDGNYGYNAATEEYGNMIDMGILDPTKVTRSALQYAASVAGLMITTEAMVTDLPKNDAADLGAAGGMGGMGGMGGMM | binds | – | –
2 | GroES (natural protein) MNIRPLHDRVIVKRKEVETKSAGGIVLTGSAAAKSTRGEVLAVGNGRILENGEVKPLDVKVGDIVIFNDGYGVKSEKIDNEEVLIMSESDILAIVEA | – | 1 GroES molecules per GroEL-14mer | 2 GroES molecules per GroEL-14mer
